Paper PMC9881875 (bioRxiv, 2023)

Key:
Assay in all cases: fluorescence polarisation
[1] = target: NHERF2 PDZ2 (UniProt Q15599 142-280)
[2] = target: DLG1 PDZ1 (UniProt Q12959 220-317)
[3] = target: SNX27 PDZ (UniProt Q96L92 41-135)
[4] = target: MAGI1 PDZ2 (UniProt Q96QZ7 471-554)
MAGI1 PDZ2, sequence (Q96QZ7 471-554): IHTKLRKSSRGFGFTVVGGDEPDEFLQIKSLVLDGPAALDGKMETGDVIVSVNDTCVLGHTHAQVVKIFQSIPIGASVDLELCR

NHERF2 PDZ2, sequence (Q15599 142-280): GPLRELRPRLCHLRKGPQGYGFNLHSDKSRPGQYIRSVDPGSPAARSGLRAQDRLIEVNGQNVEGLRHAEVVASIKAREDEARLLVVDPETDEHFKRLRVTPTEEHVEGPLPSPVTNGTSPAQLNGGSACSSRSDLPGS
DLG1 PDZ1, sequence (Q12959 220-317): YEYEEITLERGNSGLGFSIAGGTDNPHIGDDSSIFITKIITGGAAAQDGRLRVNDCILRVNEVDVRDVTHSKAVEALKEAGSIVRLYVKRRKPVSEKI

B1: _(SSRT)CFTR peptide (peptide)
peptide: SSRTVQDTRL
Work on B1 yielded a Ki [1] of 1.7 ± 0.4 µM, a Ki [2] of over 1000 µM and a Ki [3] of 0.46 ± 0.11 µM. It also gave an IC50 [4] of over 1000 µM.
